The supplement of paper PMC7877785
± gives the uncertainty stated by the source.

Assay: self-splicing fitness, log relative to wild type (ln ratio); higher = more splicing; Tetrahymena group I intron in knt gene, E. coli kanamycin selection, DiMSum; sequences stand for … in CUCUCU…GGAGGGAAAAGUUAUCAGGCAUGCACCUGGUAGCUAGUCUUUAAACCAAUAGAUUGCAUCGGUUUAAAAGGCAAGACCGUCAAAUUGCGGGAAAGGGGUCAACAGCCGUUCAGUACCAAGUCUCAGGGGAAACUUUGAGAUGGCCUUGCAAAGGGUAUGGUAAUAAGCUGACGGACAUGGUCCUAACCACGCAGCCAAGUCCUAAGUCAACAGAUCUUCUGUUGAUAUGGAUGCAGUUCACAGACUAAAUGUCGGUCGGGGAAGAUGUAUUCUUCUCAUAAGAUAUAGUCGGACCUCUCCUUAAUGGGAGCUAGCGGAUGAAGUGAUGCAACACUGGAGCCGCUGGGAACUAAUUUGUAUGCGAAAGUAUAUUGAUUAGUUUUGGAGUACUCGUGGUCG
Procedure, shortened: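 Fitness was computed with DiMSum as the error-weighted combination of replicate fold changes, kanamycin versus none, each normalised to wild type. The library randomised all eight intron nucleotides of the P1ex region, with the intron placed in the knt kanamycin-resistance gene on pET-22b(+) in E. coli BL21(DE3). Six replicate transformations were grown overnight at 37°C or 30°C on LB agar with or without 25 μg/mL kanamycin, plus 100 μg/mL carbenicillin, 50 μM IPTG and 0.2% rhamnose. Pooled colonies were amplicon-sequenced on an Illumina HiSeq 2500.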

Row | Sequence | self-splicing fitness (ln) (30 °C) | self-splicing fitness (ln) (37 °C)
1 | AACUAGCAAUAUUACGGAUU | -1.16 ± 0.088 | -0.792 ± 0.1
2 | AACUAGCAAUAUUACGGCCG | -0.725 ± 0.1 | 0.273 ± 0.13
3 | AACUAGCAAUAUUACGGGCA | -0.872 ± 0.079 | -0.13 ± 0.088
4 | AACUAGCAAUAUUACGGUCU | -0.472 ± 0.055 | 0.465 ± 0.07
5 | AACUAGCAAUAUUACGGUUU | -3.29 ± 0.12 | -2.62 ± 0.17
6 | AACUAGCAAUAUUACGUAGA | -1.76 ± 0.079 | -0.779 ± 0.11
7 | AACUAGCAAUAUUACGUCUU | 0.0966 ± 0.067 | 0.781 ± 0.083
8 | AACUAGCAAUAUUACGUUAC | -1.79 ± 0.13 | -1.96 ± 0.2
9 | AACUAGCAAUAUUACGUUAG | -3.12 ± 0.17 | -3.33 ± 0.26
10 | AACUAGCAAUAUUACGUUCA | -1.3 ± 0.1 | -0.728 ± 0.12
11 | AACUAGCAAUAUUACGUUCU | -1.55 ± 0.061 | -1.14 ± 0.079
12 | AAGAAGCAAUAUUACGAACG | -0.96 ± 0.11 | -0.286 ± 0.14
13 | AAGAAGCAAUAUUACGACAG | -2.2 ± 0.11 | -0.487 ± 0.1
14 | AAGAAGCAAUAUUACGACUU | -0.363 ± 0.061 | -0.819 ± 0.078
15 | AAGAAGCAAUAUUACGAGUA | -0.78 ± 0.26 | -1.44 ± 0.21
16 | AAGAAGCAAUAUUACGCAGA | -2.35 ± 0.17 | -1.5 ± 0.11
17 | AAGAAGCAAUAUUACGCCAU | -2.82 ± 0.24 | -2.62 ± 0.27
18 | AAGAAGCAAUAUUACGCCCA | -0.613 ± 0.21 | -1.85 ± 0.44
19 | AAGAAGCAAUAUUACGCCGA | -0.879 ± 0.12 | -0.757 ± 0.15
20 | AAGAAGCAAUAUUACGCCUA | -0.339 ± 0.12 | -0.209 ± 0.13
21 | AAGAAGCAAUAUUACGCGAC | -3.25 ± 0.24 | -1.53 ± 0.13
22 | AAGAAGCAAUAUUACGCGAG | -0.936 ± 0.081 | -0.561 ± 0.1
23 | AAGAAGCAAUAUUACGCGUA | -1.39 ± 0.099 | -0.914 ± 0.082
24 | AAGAAGCAAUAUUACGGAGC | -3.35 ± 0.24 | -2.66 ± 0.23
25 | AAGAAGCAAUAUUACGGAUU | -1.37 ± 0.097 | -0.421 ± 0.12

Row | Sequence | self-splicing fitness (ln) (30 °C) | self-splicing fitness (ln) (37 °C)
26 | AAGAAGCAAUAUUACGGGUA | -2.35 ± 0.16 | -0.422 ± 0.12
27 | AAGAAGCAAUAUUACGGGUU | -1.57 ± 0.15 | -1.41 ± 0.14
28 | AAGAAGCAAUAUUACGUAUU | -2.28 ± 0.16 | -1.43 ± 0.12
29 | AAGAAGCAAUAUUACGUCCG | -0.7 ± 0.073 | -0.283 ± 0.099
30 | AAGAAGCAAUAUUACGUCCU | -0.0351 ± 0.12 | 0.363 ± 0.16
31 | AAGAAGCAAUAUUACGUCGU | -1.31 ± 0.058 | -0.567 ± 0.073
32 | AAGAAGCAAUAUUACGUCUC | -2.04 ± 0.12 | -1.69 ± 0.16
33 | AAGCAGCAAUAUUACGAACA | -1.56 ± 0.13 | -0.603 ± 0.13
34 | AAGCAGCAAUAUUACGAACG | -2.31 ± 0.094 | -0.98 ± 0.11
35 | AAGCAGCAAUAUUACGAACU | -0.292 ± 0.07 | -1 ± 0.069
36 | AAGCAGCAAUAUUACGACCA | -0.635 ± 0.12 | -0.265 ± 0.14
37 | AAGCAGCAAUAUUACGAGAG | -4.01 ± 0.29 | -2.49 ± 0.25
38 | AAGCAGCAAUAUUACGCACC | -0.735 ± 0.085 | 0.0945 ± 0.09
39 | AAGCAGCAAUAUUACGCAUA | -2.01 ± 0.11 | -0.237 ± 0.1
40 | AAGCAGCAAUAUUACGCCCA | -0.461 ± 0.15 | 0.244 ± 0.23
41 | AAGCAGCAAUAUUACGCUGU | – | -2.7 ± 0.23
42 | AAGCAGCAAUAUUACGGACC | -1.42 ± 0.14 | -0.369 ± 0.17
43 | AAGCAGCAAUAUUACGGAUA | -2.22 ± 0.2 | -1.72 ± 0.15
44 | AAGCAGCAAUAUUACGGCUC | -1.67 ± 0.093 | -0.463 ± 0.14
45 | AAGCAGCAAUAUUACGGGCA | -0.552 ± 0.072 | -0.789 ± 0.077
46 | AAGCAGCAAUAUUACGGGCC | -1.76 ± 0.15 | -1.53 ± 0.15
47 | AAGCAGCAAUAUUACGGGGA | -3.53 ± 0.33 | -1.11 ± 0.13
48 | AAGCAGCAAUAUUACGGUAC | -3.08 ± 0.23 | -2.49 ± 0.22
49 | AAGCAGCAAUAUUACGUACG | -2.18 ± 0.12 | -0.645 ± 0.13
50 | AAGCAGCAAUAUUACGUACU | 0.254 ± 0.1 | 0.172 ± 0.11

Row | Sequence | self-splicing fitness (ln) (30 °C) | self-splicing fitness (ln) (37 °C)
51 | AAGCAGCAAUAUUACGUAGU | -2.61 ± 0.1 | -2.47 ± 0.14
52 | AAGCAGCAAUAUUACGUAUU | -2.12 ± 0.058 | -1.43 ± 0.082
53 | AAGCAGCAAUAUUACGUCUA | -1 ± 0.053 | -1.53 ± 0.062
54 | AAGCAGCAAUAUUACGUUCU | -0.454 ± 0.056 | 0.0556 ± 0.076
55 | AAGGAGCAAUAUUACGAGCC | -0.997 ± 0.17 | –
56 | AAGGAGCAAUAUUACGAGCG | -2.53 ± 0.2 | -2.19 ± 0.49
57 | AAGGAGCAAUAUUACGAUCG | -1.99 ± 0.19 | -1.8 ± 0.27
58 | AAGGAGCAAUAUUACGCAAU | -2.67 ± 0.17 | -1.71 ± 0.19
59 | AAGGAGCAAUAUUACGCAGG | -3.65 ± 0.32 | -2.22 ± 0.39
60 | AAGGAGCAAUAUUACGCCCA | -1.88 ± 0.27 | -1.46 ± 0.24
61 | AAGGAGCAAUAUUACGCGCU | -3.5 ± 0.44 | -1.5 ± 0.4
62 | AAGGAGCAAUAUUACGCUCC | – | -1.7 ± 0.47
63 | AAGGAGCAAUAUUACGCUGG | -2.18 ± 0.24 | -2.24 ± 0.31
64 | AAGGAGCAAUAUUACGGAAC | – | -2.52 ± 0.36
65 | AAGGAGCAAUAUUACGGAUC | -2.64 ± 0.36 | –
66 | AAGGAGCAAUAUUACGGCAG | -2.86 ± 0.33 | -1.75 ± 0.32
67 | AAGGAGCAAUAUUACGGUAG | -3.82 ± 0.29 | -2.75 ± 0.26
68 | AAGGAGCAAUAUUACGGUGU | -3.44 ± 0.24 | -1.77 ± 0.19
69 | AAGGAGCAAUAUUACGGUUA | -2.54 ± 0.34 | –
70 | AAGGAGCAAUAUUACGUAAA | -2.81 ± 0.32 | -0.663 ± 0.24
71 | AAGGAGCAAUAUUACGUCUU | -1.9 ± 0.09 | -1.14 ± 0.13
72 | AAGGAGCAAUAUUACGUGCU | – | -2.92 ± 0.47
73 | AAGGAGCAAUAUUACGUUUU | -3.02 ± 0.22 | -1.94 ± 0.2
74 | AAGUAGCAAUAUUACGAAUA | -3.24 ± 0.34 | -2.29 ± 0.23
75 | AAGUAGCAAUAUUACGACAG | -2.86 ± 0.18 | -1.66 ± 0.21

Row | Sequence | self-splicing fitness (ln) (30 °C) | self-splicing fitness (ln) (37 °C)
76 | AAGUAGCAAUAUUACGACCG | -1.89 ± 0.086 | -1.35 ± 0.12
77 | AAGUAGCAAUAUUACGACGA | 0.0522 ± 0.098 | 0.0374 ± 0.11
78 | AAGUAGCAAUAUUACGACUC | 0.858 ± 0.25 | 0.537 ± 0.24
79 | AAGUAGCAAUAUUACGAGAA | -2.44 ± 0.22 | -2.05 ± 0.44
80 | AAGUAGCAAUAUUACGAUCA | -0.93 ± 0.11 | -0.174 ± 0.11
81 | AAGUAGCAAUAUUACGAUUU | 0.429 ± 0.06 | 0.104 ± 0.075
82 | AAGUAGCAAUAUUACGCAAA | – | -1.34 ± 0.31
83 | AAGUAGCAAUAUUACGCCGU | -1.94 ± 0.19 | -0.462 ± 0.19
84 | AAGUAGCAAUAUUACGCGAA | -2.76 ± 0.23 | -0.182 ± 0.18
85 | AAGUAGCAAUAUUACGCUUC | – | -1.41 ± 0.2
86 | AAGUAGCAAUAUUACGGAAA | -2.49 ± 0.3 | -1.84 ± 0.24
87 | AAGUAGCAAUAUUACGGAUA | -2.1 ± 0.17 | -1.66 ± 0.16
88 | AAGUAGCAAUAUUACGGCCC | -0.413 ± 0.17 | -1.15 ± 0.26
89 | AAGUAGCAAUAUUACGGGGC | -3.29 ± 0.3 | -3.4 ± 0.26
90 | AAGUAGCAAUAUUACGGGGU | -3.03 ± 0.15 | -2.53 ± 0.15
91 | AAGUAGCAAUAUUACGGUCC | -1.32 ± 0.17 | -0.239 ± 0.14
92 | AAGUAGCAAUAUUACGGUCG | -2.14 ± 0.13 | -1.03 ± 0.12
93 | AAGUAGCAAUAUUACGUAGA | -3.01 ± 0.18 | -1.45 ± 0.21
94 | AAGUAGCAAUAUUACGUGCC | -0.879 ± 0.087 | -0.766 ± 0.1
95 | AAGUAGCAAUAUUACGUUAG | -3.51 ± 0.23 | -3 ± 0.34
96 | AAGUAGCAAUAUUACGUUCU | -0.514 ± 0.062 | -0.45 ± 0.09
97 | AAGUAGCAAUAUUACGUUGU | -2.95 ± 0.1 | -2.43 ± 0.13
98 | AAUAAGCAAUAUUACGAAGC | -3.57 ± 0.43 | –
